Two substances from US20230346916A1 can be followed below.

The target of experiment [1] is soluble human DPP4 (sDPP4) receptor (human) (UniProt P27487). Kind of experiment: ELISA, RBD-Fc coated at 1 µg/ml, sDPP4 serially diluted. Background: An ELISA detects its analyte on a solid surface through an enzyme-linked reagent.
Experiment [2] concerns the target bat ACE2 (bACE2) receptor transiently expressed on 293T cells (bat).

soluble human DPP4 (sDPP4) receptor (human), sequence (P27487 39-766 limits assumed): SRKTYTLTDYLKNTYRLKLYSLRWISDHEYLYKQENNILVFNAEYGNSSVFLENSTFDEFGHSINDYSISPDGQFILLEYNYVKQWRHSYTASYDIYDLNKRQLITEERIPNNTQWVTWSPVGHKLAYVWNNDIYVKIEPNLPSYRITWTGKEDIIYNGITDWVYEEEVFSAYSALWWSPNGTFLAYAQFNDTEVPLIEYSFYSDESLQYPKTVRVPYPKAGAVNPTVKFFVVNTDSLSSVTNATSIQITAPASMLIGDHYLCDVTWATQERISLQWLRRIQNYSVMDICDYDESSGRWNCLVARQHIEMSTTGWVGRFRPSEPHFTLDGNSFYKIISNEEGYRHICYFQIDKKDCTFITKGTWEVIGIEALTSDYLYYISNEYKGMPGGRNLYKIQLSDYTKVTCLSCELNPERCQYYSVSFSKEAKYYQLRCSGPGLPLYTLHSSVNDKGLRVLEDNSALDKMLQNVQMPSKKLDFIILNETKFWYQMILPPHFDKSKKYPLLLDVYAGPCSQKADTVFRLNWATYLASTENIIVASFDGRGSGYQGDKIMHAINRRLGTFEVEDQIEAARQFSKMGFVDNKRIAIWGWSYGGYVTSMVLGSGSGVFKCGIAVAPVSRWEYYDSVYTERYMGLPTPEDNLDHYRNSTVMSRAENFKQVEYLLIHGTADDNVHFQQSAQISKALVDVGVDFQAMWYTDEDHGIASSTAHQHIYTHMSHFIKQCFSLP

In turn, “MERS-CoV RBD-Fc fusion protein (residues 377-588 of MERS-CoV S protein with a C-terminal hFc) (from UniProt K9N5Q8 377-588)” yielded an EC50 in experiment [1] of 0.92 µg/mL.

“SARS-CoV RBD-Fc fusion protein (residues 318-510 of SARS-CoV S protein with a C-terminal hFc) (from UniProt P59594 318-510)” returned an EC50 in experiment [2] of 0.96 µg/mL.

The EC50 is the concentration at which the effect is half-maximal. A lower EC50 goes with greater potency.
